Data set [1] has as its target Salmonella enterica serovar Montevideo DpdB, His6 tag removed (Salmonella enterica subsp. enterica serotype Montevideo). Put plainly: SEC.
The target of data set [2] is Salmonella enterica serovar Montevideo DpdB, His6-tagged (Salmonella enterica subsp. enterica serotype Montevideo). Put plainly: SEC-SAXS + SEC-MALS.
The target of the next data set is T1, DpdA D95A (Salmonella enterica subsp. enterica …, UniProt P0DW33 1-416, D95A).
T1 sequence: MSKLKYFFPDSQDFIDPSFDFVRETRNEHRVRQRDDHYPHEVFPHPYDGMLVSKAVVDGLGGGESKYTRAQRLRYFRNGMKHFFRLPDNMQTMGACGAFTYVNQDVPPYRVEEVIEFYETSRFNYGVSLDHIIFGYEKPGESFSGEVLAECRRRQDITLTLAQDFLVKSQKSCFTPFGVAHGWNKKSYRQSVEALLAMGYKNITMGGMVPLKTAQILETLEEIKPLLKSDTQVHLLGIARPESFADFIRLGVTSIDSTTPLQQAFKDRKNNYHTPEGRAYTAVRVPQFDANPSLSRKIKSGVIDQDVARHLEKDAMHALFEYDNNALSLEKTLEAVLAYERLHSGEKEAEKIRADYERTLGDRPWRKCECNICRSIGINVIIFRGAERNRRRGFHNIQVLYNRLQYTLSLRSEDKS
Nature of the data set: SEC-SAXS/MALS.

In another data set the target is T2, DpdA F265A (Salmonella enterica subsp. enterica …, UniProt P0DW33 1-416, F265A).
T2 sequence: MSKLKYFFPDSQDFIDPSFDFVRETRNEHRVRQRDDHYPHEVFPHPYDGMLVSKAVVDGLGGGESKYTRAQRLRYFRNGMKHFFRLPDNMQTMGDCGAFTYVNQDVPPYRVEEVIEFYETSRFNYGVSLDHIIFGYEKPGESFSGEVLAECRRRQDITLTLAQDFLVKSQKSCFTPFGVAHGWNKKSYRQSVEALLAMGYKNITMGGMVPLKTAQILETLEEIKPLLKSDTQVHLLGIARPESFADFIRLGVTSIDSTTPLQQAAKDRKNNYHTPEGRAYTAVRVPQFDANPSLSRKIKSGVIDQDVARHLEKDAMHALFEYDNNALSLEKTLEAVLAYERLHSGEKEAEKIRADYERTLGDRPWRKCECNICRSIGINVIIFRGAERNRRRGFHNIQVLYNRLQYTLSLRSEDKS
Nature of the data set: EMSA. For orientation: Mobility shift assays separate free from complexed probe on a gel.

The next data set concerns the target T3, DpdA wild type (Salmonella enterica subsp. enterica …, UniProt P0DW33 1-416).
T3 sequence: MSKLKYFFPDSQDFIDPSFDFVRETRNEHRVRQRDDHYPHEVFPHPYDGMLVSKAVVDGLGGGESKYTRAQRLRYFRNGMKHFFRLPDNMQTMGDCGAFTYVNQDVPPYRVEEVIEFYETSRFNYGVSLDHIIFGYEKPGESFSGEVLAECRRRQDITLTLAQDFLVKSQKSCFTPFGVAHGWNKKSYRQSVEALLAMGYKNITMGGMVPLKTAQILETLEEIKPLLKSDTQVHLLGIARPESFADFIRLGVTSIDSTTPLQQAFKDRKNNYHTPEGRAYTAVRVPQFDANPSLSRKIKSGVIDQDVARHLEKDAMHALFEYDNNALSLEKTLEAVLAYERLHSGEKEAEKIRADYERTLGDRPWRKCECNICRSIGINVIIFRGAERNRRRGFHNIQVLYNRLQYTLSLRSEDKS
Nature of the data set: EMSA.

By stoichiometry N is commonly meant the number of molecules, sites or subunits per partner or assembly. In data set [1], “Salmonella enterica serovar Montevideo DpdB, His6 tag removed (enzyme)” had a stoichiometry N of 2. “Salmonella enterica serovar Montevideo DpdB, His6-tagged (enzyme)”: the stoichiometry N in data set [2] was 2.

B1: 28 bp DNA duplex (28bpDuplexF/R) (dsDNA)
DNA 1: GGGGTTTTCGCCAGCTGGCGTTTTGGGG
DNA 2: CCCCAAAACGCCAGCTGGCGAAAACCCC
As to B1, the binding result with DpdA D95A is on record as “binds”.

B2: 28 bp DNA duplex spiked with 1% 6-FAM-labeled strand (dsDNA)
DNA 1: GGGGTTTTCGCCAGCTGGCGTTTTGGGG
DNA 2: CCCCAAAACGCCAGCTGGCGAAAACCCC
A word on the Kd: it is the free concentration of one partner at which half of the binding sites on the other are occupied at equilibrium, for simple one-to-one binding. Take B2: the Kd turned out to be 2.3 ± 0.1 µM with DpdA F265A and 3.4 ± 0.2 µM with DpdA wild type.

For the origin of these results see article PMC10164549.
